The results in this text go back to US20140274782A1, “AFFINITY REAGENTS AND METHODS FOR DETECTION, PURIFICATION, AND PROTEOMIC ANALYSIS OF METHYLATED PROTEINS” (The Board of Trustees of the Leland Stanford Junior …, priority 2013, published 2014).

In one experiment the target is T1, G9a and GLP (Homo sapiens, UniProt Q96KQ7+Q9H9B1).
T1 sequence (Q96KQ7 2-1210 limits assumed): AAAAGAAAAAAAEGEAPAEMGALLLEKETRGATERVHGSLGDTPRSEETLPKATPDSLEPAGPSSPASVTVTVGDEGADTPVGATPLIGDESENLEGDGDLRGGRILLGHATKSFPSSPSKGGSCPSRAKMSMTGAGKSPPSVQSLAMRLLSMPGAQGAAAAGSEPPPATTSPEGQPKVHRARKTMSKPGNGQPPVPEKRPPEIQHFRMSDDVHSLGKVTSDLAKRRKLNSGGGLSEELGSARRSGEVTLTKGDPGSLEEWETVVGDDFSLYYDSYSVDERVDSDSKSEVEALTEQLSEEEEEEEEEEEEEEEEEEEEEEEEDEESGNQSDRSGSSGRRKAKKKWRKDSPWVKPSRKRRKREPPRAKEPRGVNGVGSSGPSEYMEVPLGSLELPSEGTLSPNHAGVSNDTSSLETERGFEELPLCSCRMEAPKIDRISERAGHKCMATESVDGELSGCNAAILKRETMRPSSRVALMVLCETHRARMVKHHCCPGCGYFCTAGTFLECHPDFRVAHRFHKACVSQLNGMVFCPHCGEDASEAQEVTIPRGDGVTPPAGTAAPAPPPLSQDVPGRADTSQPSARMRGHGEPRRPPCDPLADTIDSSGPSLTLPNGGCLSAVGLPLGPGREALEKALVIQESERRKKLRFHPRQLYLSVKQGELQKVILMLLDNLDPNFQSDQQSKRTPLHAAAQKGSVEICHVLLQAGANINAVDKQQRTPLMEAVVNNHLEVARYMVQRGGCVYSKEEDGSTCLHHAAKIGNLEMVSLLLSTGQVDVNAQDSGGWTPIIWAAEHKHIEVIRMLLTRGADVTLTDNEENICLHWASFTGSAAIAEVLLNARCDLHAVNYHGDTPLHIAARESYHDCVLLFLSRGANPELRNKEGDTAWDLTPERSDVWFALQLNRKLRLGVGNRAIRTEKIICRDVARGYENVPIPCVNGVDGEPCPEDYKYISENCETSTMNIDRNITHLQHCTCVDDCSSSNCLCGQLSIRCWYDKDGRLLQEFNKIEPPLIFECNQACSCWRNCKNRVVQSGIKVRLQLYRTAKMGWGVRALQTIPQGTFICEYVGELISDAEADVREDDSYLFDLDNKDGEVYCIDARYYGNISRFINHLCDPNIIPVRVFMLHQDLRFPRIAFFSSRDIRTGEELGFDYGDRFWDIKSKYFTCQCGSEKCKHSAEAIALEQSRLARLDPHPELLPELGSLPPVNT
T1 sequence (Q9H9B1 2-1298 limits assumed): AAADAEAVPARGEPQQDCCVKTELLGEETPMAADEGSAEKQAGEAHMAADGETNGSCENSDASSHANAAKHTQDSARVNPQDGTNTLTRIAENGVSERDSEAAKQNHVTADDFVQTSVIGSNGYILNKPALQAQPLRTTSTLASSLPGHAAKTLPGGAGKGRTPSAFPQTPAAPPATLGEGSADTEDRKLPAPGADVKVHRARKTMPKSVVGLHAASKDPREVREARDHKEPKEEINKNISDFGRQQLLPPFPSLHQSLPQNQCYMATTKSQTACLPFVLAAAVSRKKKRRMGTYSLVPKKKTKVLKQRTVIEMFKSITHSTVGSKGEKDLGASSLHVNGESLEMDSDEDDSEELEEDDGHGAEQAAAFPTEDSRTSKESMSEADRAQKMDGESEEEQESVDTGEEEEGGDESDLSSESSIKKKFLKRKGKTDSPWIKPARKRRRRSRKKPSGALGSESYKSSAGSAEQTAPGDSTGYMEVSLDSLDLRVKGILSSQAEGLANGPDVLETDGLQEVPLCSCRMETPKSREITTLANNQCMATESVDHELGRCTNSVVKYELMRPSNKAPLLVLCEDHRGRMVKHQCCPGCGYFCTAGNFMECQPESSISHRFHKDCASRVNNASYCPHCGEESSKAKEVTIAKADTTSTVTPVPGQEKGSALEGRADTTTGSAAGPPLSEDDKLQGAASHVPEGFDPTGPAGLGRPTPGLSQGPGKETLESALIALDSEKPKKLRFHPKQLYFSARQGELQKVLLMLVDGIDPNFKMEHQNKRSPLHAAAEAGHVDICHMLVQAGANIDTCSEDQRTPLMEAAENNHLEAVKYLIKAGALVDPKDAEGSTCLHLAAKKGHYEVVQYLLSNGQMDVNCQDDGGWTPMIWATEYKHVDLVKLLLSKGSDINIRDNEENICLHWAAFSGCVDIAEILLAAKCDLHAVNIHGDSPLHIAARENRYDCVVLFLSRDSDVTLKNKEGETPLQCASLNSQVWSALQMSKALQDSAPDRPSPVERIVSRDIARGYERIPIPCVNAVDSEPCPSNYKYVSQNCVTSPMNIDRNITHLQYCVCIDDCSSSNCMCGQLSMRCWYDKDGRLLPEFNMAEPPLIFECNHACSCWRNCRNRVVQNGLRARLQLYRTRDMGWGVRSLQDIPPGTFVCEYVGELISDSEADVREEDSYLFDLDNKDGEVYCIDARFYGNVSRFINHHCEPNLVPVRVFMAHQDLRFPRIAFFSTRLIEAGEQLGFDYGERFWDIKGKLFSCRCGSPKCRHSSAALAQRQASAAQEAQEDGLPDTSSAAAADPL
The experiment can be described thus: Triple SILAC pull-down after UNC0638 treatment of 293T cells, DMSO/UNC0638 ratio of protein captured by 3×MBT.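 As to all read-outs here: mass spectrometry (Q-Exactive) SILAC quantitation, DMSO/UNC0638 ratio computed after subtracting 3×MBTD355N mutant pull-down background, only proteins with at least twofold 3×MBT over mutant signal considered.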 It counts as cell-based. The arrangement: endogenous in cells; host or cells: HEK 293T. Particulars: for Relative to UNC0638 UNC Heavy / Relative to UNC0638 UNC Light: SILAC ratio DMSO/UNC0638 of protein pulled down with 3xMBT; for Relative to UNC0638 UNC Heavy: UNC0638 in heavy SILAC media; for Relative to UNC0638 UNC Light: UNC0638 in light SILAC media; for Relative to UNC0638 Average: average of UNC Light and UNC Heavy experiments.

A further experiment deals with 3×MBT domain of L3MBTL1. The experiment is described as follows: Triple SILAC pull-down, 3xMBT/3xMBTD355N ratio (cytoplasmic, nuclear and chromatin fractions of 293T cells).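 As to all read-outs here: proteins quantified with MaxQuant, requiring at least two unique peptides and quantification in both label directions, normalized to the mean of proteins from a digested loading control.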 As to conditions: SILAC ratio, pull-down 3xMBT vs 3xMBTD355N; for 3xMBT/D355N UNC Heavy: experiment with UNC0638 in heavy SILAC media; for 3xMBT/D355N UNC Light: experiment with UNC0638 in light SILAC media. The format is binding, human.

B1: GNB1L (protein, UniProt Q9BYB4 1-327, looked up)
Guanine nucleotide-binding …: MTAPCPPPPPDPQFVLRGTQSPVHALHFCEGAQAQGRPLLFSGSQSGLVHIWSLQTRRAVTTLDGHGGQCVTWLQTLPQGRQLLSQGRDLKLCLWDLAEGRSAVVDSVCLESVGFCRSSILAGGQPRWTLAVPGRGSDEVQILEMPSKTSVCALKPKADAKLGMPMCLRLWQADCSSRPLLLAGYEDGSVVLWDVSEQKVCSRIACHEEPVMDLDFDSQKARGISGSAGKALAVWSLDWQQALQVRGTHELTNPGIAEVTIRPDRKILATAGWDHRIRVFHWRTMQPLAVLAFHSAAVQCVAFTADGLLAAGSKDQRISLWSLYPRA
With B1, in the experiment with G9a and GLP, the “Relative to UNC0638 UNC Heavy” value was 0.25 log base 2, the “Relative to UNC0638 UNC Light” value was found to be 0.12 log base 2 and the “Relative to UNC0638 Average” value is listed as 0.19 log base 2. In the experiment on 3×MBT domain of L3MBTL1, the “3xMBT/D355N UNC Heavy” value is 2.24 log base 2 and the “3xMBT/D355N UNC Light” value came to 2.60 log base 2.

B2: TOP1 (protein, UniProt P11387 2-765, looked up)
DNA topoisomerase 1: SGDHLHNDSQIEADFRLNDSHKHKDKHKDREHRHKEHKKEKDREKSKHSNSEHKDSEKKHKEKEKTKHKDGSSEKHKDKHKDRDKEKRKEEKVRASGDAKIKKEKENGFSSPPQIKDEPEDDGYFVPPKEDIKPLKRPRDEDDADYKPKKIKTEDTKKEKKRKLEEEEDGKLKKPKNKDKDKKVPEPDNKKKKPKKEEEQKWKWWEEERYPEGIKWKFLEHKGPVFAPPYEPLPENVKFYYDGKVMKLSPKAEEVATFFAKMLDHEYTTKEIFRKNFFKDWRKEMTNEEKNIITNLSKCDFTQMSQYFKAQTEARKQMSKEEKLKIKEENEKLLKEYGFCIMDNHKERIANFKIEPPGLFRGRGNHPKMGMLKRRIMPEDIIINCSKDAKVPSPPPGHKWKEVRHDNKVTWLVSWTENIQGSIKYIMLNPSSRIKGEKDWQKYETARRLKKCVDKIRNQYREDWKSKEMKVRQRAVALYFIDKLALRAGNEKEEGETADTVGCCSLRVEHINLHPELDGQEYVVEFDFLGKDSIRYYNKVPVEKRVFKNLQLFMENKQPEDDLFDRLNTGILNKHLQDLMEGLTAKVFRTYNASITLQQQLKELTAPDENIPAKILSYNRANRAVAILCNHQRAPPKTFEKSMMNLQTKIDAKKEQLADARRDLKSAKADAKVMKDAKTKKVVESKKKAVQRLEEQLMKLEVQATDREENKQIALGTSKLNYLDPRITVAWCKKWGVPIEKIYNKTQREKFAWAIDMADEDYEF
On to B2, for which, in the experiment with G9a and GLP, the “Relative to UNC0638 UNC Heavy” value is 0.16 log base 2, the “Relative to UNC0638 UNC Light” value turned out to be 0.22 log base 2 and the “Relative to UNC0638 Average” value is reported as 0.19 log base 2. Also, in the experiment with 3×MBT domain of L3MBTL1, the “3xMBT/D355N UNC Heavy” value is on record as 3.47 log base 2 and the “3xMBT/D355N UNC Light” value is given as 3.87 log base 2.

B3: FUS (protein, UniProt P35637 1-526, looked up)
RNA-binding protein FUS: MASNDYTQQATQSYGAYPTQPGQGYSQQSSQPYGQQSYSGYSQSTDTSGYGQSSYSSYGQSQNTGYGTQSTPQGYGSTGGYGSSQSSQSSYGQQSSYPGYGQQPAPSSTSGSYGSSSQSSSYGQPQSGSYSQQPSYGGQQQSYGQQQSYNPPQGYGQQNQYNSSSGGGGGGGGGGNYGQDQSSMSSGGGSGGGYGNQDQSGGGGSGGYGQQDRGGRGRGGSGGGGGGGGGGYNRSSGGYEPRGRGGGRGGRGGMGGSDRGGFNKFGGPRDQGSRHDSEQDNSDNNTIFVQGLGENVTIESVADYFKQIGIIKTNKKTGQPMINLYTDRETGKLKGEATVSFDDPPSAKAAIDWFDGKEFSGNPIKVSFATRRADFNRGGGNGRGGRGRGGPMGRGGYGGGGSGGGGRGGFPSGGGGGGGQQRAGDWKCPNPTCENMNFSWRNECNQCKAPKPDGPGGGPGGSHMGGNYGDDRRGGRGGYDRGGYRGRGGDRGGFRGGRGGGDRGGFGPGKMDSRGEHRQDRRERPY
For B3, in the experiment with G9a and GLP, the “Relative to UNC0638 UNC Heavy” value stood at 0.05 log base 2, the “Relative to UNC0638 UNC Light” value stood at 0.34 log base 2 and the “Relative to UNC0638 Average” value is reported as 0.19 log base 2. In the experiment on 3×MBT domain of L3MBTL1, the “3xMBT/D355N UNC Heavy” value is 2.17 log base 2 and the “3xMBT/D355N UNC Light” value amounted to 2.10 log base 2.

B4: GIGYF2 (protein, UniProt Q6Y7W6 2-1299, looked up)
GRB10-interacting GYF protein …: AAETQTLNFGPEWLRALSSGGSITSPPLSPALPKYKLADYRYGREEMLALFLKDNKIPSDLLDKEFLPILQEEPLPPLALVPFTEEEQRNFSMSVNSAAVLRLTGRGGGGTVVGAPRGRSSSRGRGRGRGECGFYQRSFDEVEGVFGRGGGREMHRSQSWEERGDRRFEKPGRKDVGRPNFEEGGPTSVGRKHEFIRSESENWRIFREEQNGEDEDGGWRLAGSRRDGERWRPHSPDGPRSAGWREHMERRRRFEFDFRDRDDERGYRRVRSGSGSIDDDRDSLPEWCLEDAEEEMGTFDSSGAFLSLKKVQKEPIPEEQEMDFRPVDEGEECSDSEGSHNEEAKEPDKTNKKEGEKTDRVGVEASEETPQTSSSSARPGTPSDHQSQEASQFERKDEPKTEQTEKAEEETRMENSLPAKVPSRGDEMVADVQQPLSQIPSDTASPLLILPPPVPNPSPTLRPVETPVVGAPGMGSVSTEPDDEEGLKHLEQQAEKMVAYLQDSALDDERLASKLQEHRAKGVSIPLMHEAMQKWYYKDPQGEIQGPFNNQEMAEWFQAGYFTMSLLVKRACDESFQPLGDIMKMWGRVPFSPGPAPPPHMGELDQERLTRQQELTALYQMQHLQYQQFLIQQQYAQVLAQQQKAALSSQQQQQLALLLQQFQTLKMRISDQNIIPSVTRSVSVPDTGSIWELQPTASQPTVWEGGSVWDLPLDTTTPGPALEQLQQLEKAKAAKLEQERREAEMRAKREEEERKRQEELRRQQEEILRRQQEEERKRREEEELARRKQEEALRRQREQEIALRRQREEEERQQQEEALRRLEERRREEEERRKQEELLRKQEEEAAKWAREEEEAQRRLEENRLRMEEEAARLRHEEEERKRKELEVQRQKELMRQRQQQQEALRRLQQQQQQQQLAQMKLPSSSTWGQQSNTTACQSQATLSLAEIQKLEEERERQLREEQRRQQRELMKALQQQQQQQQQKLSGWGNVSKPSGTTKSLLEIQQEEARQMQKQQQQQQQHQQPNRARNNTHSNLHTSIGNSVWGSINTGPPNQWASDLVSSIWSNADTKNSNMGFWDDAVKEVGPRNSTNKNKNNASLSKSVGVSNRQNKKVEEEEKLLKLFQGVNKAQDGFTQWCEQMLHALNTANNLDVPTFVSFLKEVESPYEVHDYIRAYLGDTSEAKEFAKQFLERRAKQKANQQRQQQQLPQQQQQQPPQQPPQQPQQQDSVWGMNHSTLHSVFQTNQSNNQQSNFEAVQSGKKKKKQKMVRADPSLLGFSVNASSERLNMGEIETLDDY
As to B4, in the experiment with G9a and GLP, the “Relative to UNC0638 UNC Heavy” value was found to be 0.34 log base 2, the “Relative to UNC0638 UNC Light” value is 0.05 log base 2 and the “Relative to UNC0638 Average” value was 0.19 log base 2. Moreover, in the experiment on 3×MBT domain of L3MBTL1, the “3xMBT/D355N UNC Heavy” value is listed as 2.62 log base 2 and the “3xMBT/D355N UNC Light” value stood at 3.04 log base 2.
